Measurements published in article PMC5773547.

Biological target: His-tagged recombinant CHIKV nsP2-NT (1-454) (Chikungunya virus strain S 27)

Substance: His-tagged recombinant CHIKV nsP1-WT (1-535) (from UniProt Q8JUX6 1-535) (enzyme)
- ATPase activity of nsP2-NT (0.2 μg) with nsP1-WT (0.6 μg) against nsP2-NT alone, TLC assay with [γ-P32] ATP, release of free Pi: 1.5 fold
- ATPase activity of nsP2-NT (1 μg) with nsP1-WT (1 μg), colorimetric malachite green assay, Pi release (approximately 86 μM for nsP2-NT alone): 174 µM
